Test in all cases: Kinase Profiling Assay
Holding throughout (format): biochemical
Common to all, as to settings: 100 μM peptide

One assay has as its target Abl(Q252H)(h) (Homo sapiens, UniProt P00519, Q252H). The procedure, abridged:
(§1)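 Read-out is kinase activity, measured twice per kinase, across 266 human kinases exposed to MK2 inhibitory peptides in a specificity screen.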

For another assay, the target named is Abl(Y253F)(h) (Homo sapiens, UniProt P00519, Y253F). The gist of the method:
as §1

For another assay, the target named is DAPK2(h) (Homo sapiens, UniProt Q9UIK4). The procedure, abridged:
as §1

For the next assay, the target named is T1, EphA8(h) (Homo sapiens, UniProt P29322).
T1 sequence (P29322 28-1005): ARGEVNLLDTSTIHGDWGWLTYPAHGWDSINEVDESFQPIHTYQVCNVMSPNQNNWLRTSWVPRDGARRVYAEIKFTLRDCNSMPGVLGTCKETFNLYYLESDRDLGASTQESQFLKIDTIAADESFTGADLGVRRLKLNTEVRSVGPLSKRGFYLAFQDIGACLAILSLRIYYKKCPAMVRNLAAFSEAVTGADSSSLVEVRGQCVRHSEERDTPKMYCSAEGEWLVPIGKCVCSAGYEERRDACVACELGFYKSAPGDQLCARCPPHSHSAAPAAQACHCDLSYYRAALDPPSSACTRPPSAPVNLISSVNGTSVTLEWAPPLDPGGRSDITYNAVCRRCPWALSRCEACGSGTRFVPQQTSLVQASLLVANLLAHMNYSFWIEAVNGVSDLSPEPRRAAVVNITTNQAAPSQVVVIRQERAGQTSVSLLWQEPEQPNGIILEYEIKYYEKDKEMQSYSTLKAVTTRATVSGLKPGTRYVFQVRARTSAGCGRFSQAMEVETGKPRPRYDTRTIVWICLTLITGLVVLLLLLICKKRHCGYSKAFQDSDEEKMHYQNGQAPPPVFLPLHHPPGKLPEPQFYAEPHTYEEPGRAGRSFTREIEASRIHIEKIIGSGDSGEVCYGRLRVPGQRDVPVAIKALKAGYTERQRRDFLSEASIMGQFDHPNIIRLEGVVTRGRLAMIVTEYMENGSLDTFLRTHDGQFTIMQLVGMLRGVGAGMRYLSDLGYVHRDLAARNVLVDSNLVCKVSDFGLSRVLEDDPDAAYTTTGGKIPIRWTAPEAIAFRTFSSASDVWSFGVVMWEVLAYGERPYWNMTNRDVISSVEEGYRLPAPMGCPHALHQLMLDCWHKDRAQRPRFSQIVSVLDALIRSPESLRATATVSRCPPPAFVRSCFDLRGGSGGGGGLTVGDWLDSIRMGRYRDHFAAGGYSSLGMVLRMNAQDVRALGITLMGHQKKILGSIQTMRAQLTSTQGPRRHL
The gist of the method:
as §1

A further assay addresses Flt3(D835Y)(h) (Homo sapiens, UniProt P36888, D835Y). The gist of the method:
as §1

The target in the next assay is T2, IR(h), activated (Homo sapiens, UniProt P06213).
T2 construct: purchased Millipore
T2 sequence (P06213 1005-1310 limits assumed): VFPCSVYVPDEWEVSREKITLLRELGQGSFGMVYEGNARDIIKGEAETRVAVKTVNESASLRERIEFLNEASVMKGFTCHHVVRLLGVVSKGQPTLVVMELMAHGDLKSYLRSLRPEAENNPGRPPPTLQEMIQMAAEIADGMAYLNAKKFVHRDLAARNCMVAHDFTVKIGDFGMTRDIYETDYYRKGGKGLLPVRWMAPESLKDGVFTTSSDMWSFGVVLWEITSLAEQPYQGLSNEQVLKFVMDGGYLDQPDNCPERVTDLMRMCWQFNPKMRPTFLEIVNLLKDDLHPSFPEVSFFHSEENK
The gist of the method: as §1

Another assay deals with T3, NEK11(h) (Homo sapiens, UniProt Q8NG66).
T3 sequence (Q8NG66 1-645): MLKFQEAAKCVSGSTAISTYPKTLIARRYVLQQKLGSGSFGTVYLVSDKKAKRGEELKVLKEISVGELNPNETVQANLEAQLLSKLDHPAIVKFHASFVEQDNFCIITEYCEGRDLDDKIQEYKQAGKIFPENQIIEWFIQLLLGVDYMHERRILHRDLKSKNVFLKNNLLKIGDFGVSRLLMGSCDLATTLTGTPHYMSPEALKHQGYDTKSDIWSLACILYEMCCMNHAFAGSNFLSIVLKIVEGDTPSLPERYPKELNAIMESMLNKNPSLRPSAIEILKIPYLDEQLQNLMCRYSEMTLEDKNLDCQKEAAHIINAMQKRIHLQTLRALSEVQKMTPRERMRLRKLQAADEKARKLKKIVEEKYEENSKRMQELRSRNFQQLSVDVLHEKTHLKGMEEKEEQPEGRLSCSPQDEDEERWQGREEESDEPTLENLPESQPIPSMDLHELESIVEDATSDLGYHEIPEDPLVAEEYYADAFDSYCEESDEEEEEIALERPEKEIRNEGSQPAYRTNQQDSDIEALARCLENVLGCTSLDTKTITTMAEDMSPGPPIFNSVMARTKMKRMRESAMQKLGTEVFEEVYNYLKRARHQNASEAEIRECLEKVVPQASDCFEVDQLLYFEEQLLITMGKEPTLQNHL
The procedure, abridged:
as §1

A further assay has as its target T4, NLK(h) (Homo sapiens, UniProt Q9UBE8).
T4 sequence (Q9UBE8 1-527): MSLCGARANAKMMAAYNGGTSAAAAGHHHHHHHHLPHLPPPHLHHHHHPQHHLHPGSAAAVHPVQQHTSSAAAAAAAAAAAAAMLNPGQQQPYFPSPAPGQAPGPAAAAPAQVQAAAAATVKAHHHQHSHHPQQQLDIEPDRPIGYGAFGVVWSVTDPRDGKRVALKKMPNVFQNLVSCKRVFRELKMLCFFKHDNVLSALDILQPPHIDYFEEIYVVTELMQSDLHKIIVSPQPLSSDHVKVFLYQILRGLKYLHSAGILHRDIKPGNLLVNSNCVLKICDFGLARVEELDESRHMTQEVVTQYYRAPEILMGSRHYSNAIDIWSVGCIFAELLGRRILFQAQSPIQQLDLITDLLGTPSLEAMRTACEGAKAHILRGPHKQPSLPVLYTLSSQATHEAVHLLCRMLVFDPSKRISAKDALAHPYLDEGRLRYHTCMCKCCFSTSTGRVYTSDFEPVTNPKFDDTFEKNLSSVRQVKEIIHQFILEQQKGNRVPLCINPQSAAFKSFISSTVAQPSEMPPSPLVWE
The gist of the method:
as §1

Another assay has as its target T5, Src(1-530)(h) (Homo sapiens, UniProt P12931).
T5 construct: Src(1-530)
The procedure, abridged:
as §1

The next assay concerns the target cKit(D816V)(h) (Homo sapiens, UniProt P10721, D816V). The procedure, abridged: as §1
For another assay, the target named is Met(Y1248D)(h) (Homo sapiens, UniProt P08581, Y1230D). The procedure, abridged: as §1

Sequence of DAPK2(h) (Q9UIK4 whole entry): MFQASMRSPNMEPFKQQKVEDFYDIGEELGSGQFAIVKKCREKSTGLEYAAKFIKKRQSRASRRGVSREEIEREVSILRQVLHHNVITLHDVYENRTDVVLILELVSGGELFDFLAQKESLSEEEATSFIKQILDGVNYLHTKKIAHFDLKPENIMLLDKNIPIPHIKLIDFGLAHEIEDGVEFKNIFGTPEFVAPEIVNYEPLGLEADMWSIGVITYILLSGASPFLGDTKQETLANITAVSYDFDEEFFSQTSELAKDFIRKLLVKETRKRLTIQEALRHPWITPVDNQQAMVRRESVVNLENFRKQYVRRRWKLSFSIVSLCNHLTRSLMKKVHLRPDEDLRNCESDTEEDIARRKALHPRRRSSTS

As for FAKLAARLYRKALARQLGVAA [MMI-0300], in the assay with Abl(Q252H)(h), the “Abl(Q252H)(h) % activity” value is given as 82%. Further, the “Abl(Y253F)(h) % activity” value in the assay with Abl(Y253F)(h) was 86%. The “DAPK2(h) % activity” value in the assay with DAPK2(h) worked out at 32%. In addition, the “EphA8(h) % activity” value with EphA8(h) was found to be 93%. Further, in the assay with Flt3(D835Y)(h), the “Flt3(D835Y)(h) % activity” value came to 80%. For the same sequence, the “IR(h), activated % activity” value with IR(h), activated came out at 79%. Further, in the assay with NEK11(h), the “NEK11(h) % activity” value worked out at 53%. Besides, the “NLK(h) % activity” value with NLK(h) was found to be 87%. Also, the “Src(1-530)(h) % activity” value with Src(1-530)(h) is 23%. Further, in the assay with cKit(D816V)(h), the “cKit(D816V)(h) % activity” value is 60%.
Regarding KAFAKLAARLYRKALARQLGVAA [MMI-0400], in the assay with Abl(Q252H)(h), the “Abl(Q252H)(h) % activity” value stood at 98%. In addition, the “Abl(Y253F)(h) % activity” value with Abl(Y253F)(h) is listed as 78%. Also, in the assay with DAPK2(h), the “DAPK2(h) % activity” value is reported as 16%. Besides, the “EphA8(h) % activity” value in the assay with EphA8(h) was found to be 146%. Also, the “Flt3(D835Y)(h) % activity” value with Flt3(D835Y)(h) turned out to be 71%. Further, the “IR(h), activated % activity” value in the assay with IR(h), activated is listed as 59%. In addition, the “Met(Y1248D)(h) % activity” value with Met(Y1248D)(h) was 31%. The “NEK11(h) % activity” value in the assay with NEK11(h) was determined as 33%. In addition, the “NLK(h) % activity” value with NLK(h) is on record as 90%. The “Src(1-530)(h) % activity” value with Src(1-530)(h) is 19%. Further, in the assay with cKit(D816V)(h), the “cKit(D816V)(h) % activity” value is reported as 35%.
“HRRIKAWLKKIKALARQLGVAA (Mammalian) [MMI-0500]”: the “Abl(Q252H)(h) % activity” value with Abl(Q252H)(h) was found to be 40%. For the same sequence, the “Abl(Y253F)(h) % activity” value with Abl(Y253F)(h) is recorded as 29%. Further, the “DAPK2(h) % activity” value with DAPK2(h) was 3%. Also, in the assay with EphA8(h), the “EphA8(h) % activity” value amounted to 337%. Further, the “Flt3(D835Y)(h) % activity” value in the assay with Flt3(D835Y)(h) worked out at 65%. Also, the “IR(h), activated % activity” value in the assay with IR(h), activated stood at 90%. In the assay with Met(Y1248D)(h), the “Met(Y1248D)(h) % activity” value is on record as 218%. In addition, in the assay with NEK11(h), the “NEK11(h) % activity” value was 2%. The “NLK(h) % activity” value with NLK(h) came to 19%. Further, the “Src(1-530)(h) % activity” value with Src(1-530)(h) is 21%. In the assay with cKit(D816V)(h), the “cKit(D816V)(h) % activity” value is given as 30%.
As to “YARAAARQARAKALNRQLGVA (Mammalian) [MMI-0200]”, the “DAPK2(h) % activity” value with DAPK2(h) came out at 92%. Also, the “EphA8(h) % activity” value in the assay with EphA8(h) stood at 133%. Further, the “Met(Y1248D)(h) % activity” value with Met(Y1248D)(h) worked out at 118%. Besides, the “NEK11(h) % activity” value with NEK11(h) is on record as 95%. For the same sequence, the “Src(1-530)(h) % activity” value with Src(1-530)(h) stood at 75%. For the same sequence, the “cKit(D816V)(h) % activity” value with cKit(D816V)(h) was determined as 118%.

Source of the values: patent US10562947B2, “Compositions and methods for preventing or treating diseases, conditions or processes characterized by aberrant fibroblast proliferation and extracellular matrix deposition” (MOERAE MATRIX, INC., priority 2011, dated 2020).
